Experimental data: the supplement of paper PMC10567573

B1: CD69 (parent)
chain: FVAENSSLHPESGQENDATSPHFS

Variants of: B1
Test: protein stability index of a GFP-peptide fusion (GPS, HEK-293T) (PSI 1-6); higher = more stable
Settings: c terminus: a fixed tail appended
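Note: lentivirally expressed fusions sorted by FACS into six bins by GFP to DsRed ratio, PSI derived from sequencing read proportions per bin multiplied by bin number.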

Protein stability index, by site and new letter:
P21: V 2.52 | F 2.91 | R 2.56 | D 3.6 | A 2.62 | Q 3.15 | Y 2.62 | G 3.04 | N 2.6 | H 2.46
A18: I 2.71 | P 3.19 | C 2.9 | E 3.87 | Q 3.53 | V 3.22 | F 2.67 | D 3.22 | R 2.57 | N 3.07 | S 2.91 | M 2.73 | K 2.61 | L 2.85 | G 3.03 | W 2.24 | H 2.45
H9: K 3.62 | E 4.49 | F 2.95 | M 3.08 | V 3.03 | Q 3.5 | S 3.32 | N 2.8 | L 2.96
S12: H 2.64 | N 3.05 | E 3.83 | C 2.73 | F 2.39 | K 2.66 | Q 2.88 | T 3.14 | W 1.83 | P 3.39 | Y 2.39 | G 2.9 | L 2.46
N16: T 2.8 | C 2.73 | D 3.61 | I 3.01 | K 3.29 | W 2.11 | G 2.88 | R 2.66 | Q 3.37 | F 2.81 | L 2.81 | M 2.56 | A 2.51 | E 3.05
S7: T 3.24 | G 3.29 | R 2.13 | F 2.27 | W 3.07 | I 2.39 | H 2.83 | V 2.73 | L 2.67 | E 4.06 | P 3.11 | M 2.22 | N 3.3 | C 2.46 | D 4.39
P10: Y 3.15 | A 3.06 | D 3.32 | F 2.48 | R 2.56 | K 2.98 | T 3.13 | L 2.9 | C 2.84 | G 3.29 | H 3.61 | E 3.54 | I 3.23 | Q 3.45 | N 3.63 | V 3.22 | S 2.52
S20: C 2.78 | A 3.16 | V 2.68 | Q 3.15 | D 4.01 | F 2.32 | Y 2.11 | K 2.71 | T 3.12 | E 3.75 | P 2.54 | L 3.02 | N 2.71 | W 2.09 | M 2.78
D17: Q 2.32 | S 2.73 | F 2.05 | T 2.54 | V 2.36 | G 2.65 | A 3.79 | K 2.2 | L 2.56 | W 1.92 | N 2.95 | I 2.69 | Y 2.18
F1: E 5.62 | Y 3.64 | Q 5.65 | W 5.2 | A 4.81 | V 4.96 | R 5.12 | I 5.04 | T 5.58 | K 5.78 | C 5.02 | N 5.39 | P 5.51
F23: K 4.07 | L 3.55 | T 3.61 | D 4.53 | N 3.8 | A 3.55 | V 3.59 | S 4.12 | P 3.37 | R 3.22 | C 3.19 | I 3.46 | Q 3.8 | Y 3.09 | E 4.17
N5: Q 3.22 | A 3.1 | D 4.57 | V 2.96 | P 2.56 | S 2.57 | C 2.5 | H 2.61 | Y 2.87 | F 1.94 | L 2.95
E11: L 1.6 | A 2.51 | R 2.12 | N 3.21 | Q 2.48
